This note sets out measurements from the supplement of paper PMC5998384.

Data set [1] has as its system HeLa Kyoto. In words: melting temperature (median over replicates), in situ; higher = more thermally stable.
For data set [2], the system named is HeLa Kyoto. In words: solubility change mitosis vs G1/S (difference of NP-40 vs SDS log2 ratios) (log2 ratio difference); higher = more soluble in mitosis.
Data set [3] concerns HeLa Kyoto. Nature of the data set: thermal stability score vs G1/S (z-score of summed log2 fold changes over temperatures); higher = more thermally stable than in G1/S.
Data set [4] deals with HeLa Kyoto. Nature of the data set: solubility in G1/S (NP-40 vs SDS abundance) (log2 ratio); higher = more soluble. Particulars: cell cycle stage: G1/S.
The mark [5] stands for this setting: cell cycle stage: early G1 (4.5 h after nocodazole release).
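Throughout, for melting temperature (median over replicates), in situ: HeLa Kyoto cells synchronized by double thymidine or nocodazole block, proteins quantified by TMT10plex mass spectrometry, three independent biological replicates.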
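Throughout, for solubility change mitosis vs G1/S (difference of NP-40 vs SDS log2 ratios): synchronized HeLa Kyoto cells (double thymidine block for G1/S, nocodazole release for mitosis), protein amounts in NP-40 versus SDS lysates quantified by mass spectrometry, three biological replicates.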
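Throughout, for solubility in G1/S (NP-40 vs SDS abundance): HeLa Kyoto cells arrested at G1/S by double thymidine block, proteins quantified by TMT10plex mass spectrometry in mild NP-40 versus SDS extracts, three biological replicates.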
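Throughout, for thermal stability score vs G1/S (z-score of summed log2 fold changes over temperatures): synchronized HeLa Kyoto cells, proteins quantified by TMT10plex mass spectrometry, three biological replicates, mitosis taken 0.5 h after nocodazole release, G1/S directly after double thymidine block.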

Take “MAERGELDLTGAKQNTGVWLVKVPKYLSQQWAKASGRGEVGKLRIAKTQGRTEVSFTLNEDLANIHDIGGKPASVSAPREHPFVLQSVGGQTLTVFTESSSDKLSLEGIVVQRAECRPAASENYMRLKRLQIEESSKPVRLSQQLDKVVTTNYKPVANHQYNIEYERKKKEDGKRARADKQHVLDMLFSAFEKHQYYNLKDLVDITKQPVVYLKEILKEIGVQNVKGIHKNTWELKPEYRHYQGEEKSD [GTF2F2]”: the melting temperature in the data set on HeLa Kyoto [1] (cell cycle stage: G1/S) and in the data set with HeLa Kyoto [1] (cell cycle stage: mitosis) was 52.6 °C throughout. The “solubility change mitosis (log2)” value in the data set on HeLa Kyoto [2] was -0.0476. The thermal stability score in the data set with HeLa Kyoto [3] (setting [5]) stood at 0.0893; with HeLa Kyoto [3] (cell cycle stage: mitosis), 0.0418. Also, in the data set with HeLa Kyoto [4], the “solubility in G1/S (log2)” value was 0.436.

Consider “MAERGYSFSLTTFSPSGKLVQIEYALAAVAGGAPSVGIKAANGVVLATEKKQKSILYDERSVHKVEPITKHIGLVYSGMGPDYRVLVHRARKLAQQYYLVYQEPIPTAQLVQRVASVMQEYTQSGGVRPFGVSLLICGWNEGRPYLFQSDPSGAYFAWKATAMGKNYVNGKTFLEKRYNEDLELEDAIHTAILTLKESFEGQMTEDNIEVGICNEAGFRRLTPTEVKDYLAAIA [PSMA2]”, for which the figures for the melting temperature with HeLa Kyoto [1] (cell cycle stage: G1/S) and with HeLa Kyoto [1] (cell cycle stage: mitosis) were 58.3 °C and 60.8 °C, respectively. Further, the “solubility change mitosis (log2)” value in the data set on HeLa Kyoto [2] was -0.045. Besides, the results for the thermal stability score in the data set with HeLa Kyoto [3] (setting [5]) and in the data set on HeLa Kyoto [3] (cell cycle stage: mitosis) were -1.52 and -1.53, respectively. The “solubility in G1/S (log2)” value with HeLa Kyoto [4] was 0.391.

Take “MAERRRHKKRIQEVGEPSKEEKAVAKYLRFNCPTKSTNMMGHRVDYFIASKAVDCLLDSKWAKAKKGEEALFTTRESVVDYCNRLLKKQFFHRALKVMKMKYDKDIKKEKDKGKAESGKEEDKKSKKENIKDEKTKKEKEKKKDGEKEESKKEETPGTPKKKETKKKFKLEPHDDQVFLDGNEVYVWIYDPVHFKTFVMGLILVIAVIAATLFPLWPAEMRVGVYYLSVGAGCFVASILLLAVARCILFLIIWLITGGRHHFWFLPNLTADVGFIDSFRPLYTHEYKGPKADLKKDEKSETKKQQKSDSEEKSDSEKKEDEEGKVGPGNHGTEGSGGERHSDTDSDRREDDRSQHSSGNGNDFEMITKEELEQQTDGDCEEDEEEENDGETPKSSHEKS [SEC62]”: the melting temperature in the data set on HeLa Kyoto [1] (cell cycle stage: G1/S) was determined as 55.5 °C; in the data set with HeLa Kyoto [1] (cell cycle stage: mitosis), 55.4 °C. In addition, the “solubility change mitosis (log2)” value in the data set with HeLa Kyoto [2] was 0.0142. The thermal stability score in the data set on HeLa Kyoto [3] (setting [5]) is -4.12; in the data set on HeLa Kyoto [3] (cell cycle stage: mitosis) it was -4.37. Moreover, the “solubility in G1/S (log2)” value with HeLa Kyoto [4] is -0.134.

Consider “MAESPTEEAATAGAGAAGPGASSVAGVVGVSGSGGGFGPPFLPDVWAAAAAAGGAGGPGSGLAPLPGLPPSAAAHGAALLSHWDPTLSSDWDGERTAPQCLLRIKRDIMSIYKEPPPGMFVVPDTVDMTKIHALITGPFDTPYEGGFFLFVFRCPPDYPIHPPRVKLMTTGNNTVRFNPNFYRNGKVCLSILGTWTGPAWSPAQSISSVLISIQSLMTENPYHNEPGFEQERHPGDSKNYNECIRHETIRVAVCDMMEGKCPCPEPLRGVMEKSFLEYYDFYEVACKDRLHLQGQTMQDPFGEKRGHFDYQSLLMRLGLIRQKVLERLHNENAEMDSDSSSSGTETDLHGSLRV [UBE2Z]”, for which the melting temperature in the data set with HeLa Kyoto [1] (cell cycle stage: G1/S) was 52.7 °C; with HeLa Kyoto [1] (cell cycle stage: mitosis), 52.8 °C. In addition, the “solubility change mitosis (log2)” value in the data set on HeLa Kyoto [2] was -0.169. Moreover, the thermal stability score was -0.171 in the data set on HeLa Kyoto [3] (setting [5]) and -0.398 in the data set with HeLa Kyoto [3] (cell cycle stage: mitosis). For the same sequence, the “solubility in G1/S (log2)” value with HeLa Kyoto [4] was found to be 0.403.

For the sequence “MAETSEEVAVLVQRVVKDITNAFRRNPHIDEIGLIPCPEARYNRSPIVLVENKLGVESWCVKFLLPYVHNKLLLYRTRKQWLNRDELIDVTCTLLLLNPDFTTAWNVRKELILSGTLNPIKDLHLGKLALTKFPKSPETWIHRRWVLQQLIQETSLPSFVTKGNLGTIPTERAQRLIQEEMEVCGEAAGRYPSNYNAWSHRIWVLQHLAKLDVKILLDELSSTKHWASMHVSDHSGFHYRQFLLKSLISQTVIDSSVMEQNPLRSEPALVPPKDEEAAVSTEEPRINLPHLLEEEVEFSTDLIDSYPGHETLWCHRRHIFYLQHHLNAGSQLSQAMEVDGLNDSSKQGYSQETKRLKRTPVPDSLGLEMEHRFIDQVLSTCRNVEQARFASAYRKWLVTLSQ [PTAR1]”, the results for the melting temperature with HeLa Kyoto [1] (cell cycle stage: G1/S) and with HeLa Kyoto [1] (cell cycle stage: mitosis) were 53 °C and 52.1 °C, respectively. Besides, the “solubility change mitosis (log2)” value in the data set on HeLa Kyoto [2] is -0.125. In addition, the values for the thermal stability score with HeLa Kyoto [3] (setting [5]) and with HeLa Kyoto [3] (cell cycle stage: mitosis) were -1.63 and -2.24, respectively. For the same sequence, the “solubility in G1/S (log2)” value in the data set with HeLa Kyoto [4] is 0.0716.
